Consider one substance from PMC7057348.

Holding throughout (experiment): SPR; Biacore T200; omalizumab, Fabs and scFv immobilised on CM5 chips by amine coupling; IgE-Fc injected in a twofold dilution series (100-0.4 nM), 20 µl/min, 240 s association, 900 s dissociation; 25°C; 20 mM HEPES pH 7.4, 150 mM NaCl, 0.005% (v/v) surfactant P20; biphasic model with one higher-affinity and one lower-affinity interaction
A general note: In SPR one partner is held on a chip, and binding of the other changes the refractive index at the surface.

The target of test [1] is FabXol2 (omalizumab-derived Ser81Arg, Gln83Arg light-chain mutant Fab).
The target of test [2] is FabXol (wild-type omalizumab Fab).
For test [3], the target named is Omalizumab (intact anti-IgE monoclonal IgG1 antibody).
Test [4] concerns the target scFvXol (omalizumab-derived scFv).
Test [5] addresses FabXol3 (omalizumab-derived Ser81Arg, Gln83Arg, Leu158Pro light-chain mutant Fab).

“IgE-Fc (Fc region of immunoglobulin E) (domain or fragment)”: the koff1 (biphasic model) in test [1] came out at 0.00045 s⁻¹; in test [2], 0.00056 s⁻¹; in test [3] it was 0.0007 s⁻¹; in test [4], 0.00029 s⁻¹; in test [5], 0.00033 s⁻¹. The koff2 (biphasic model) in test [1] was 0.011 s⁻¹; in test [2] it was 0.012 s⁻¹; in test [3] it was 0.012 s⁻¹; in test [4], 0.0087 s⁻¹; in test [5], 0.009 s⁻¹. Besides, the kon1 (biphasic model) in test [1] worked out at 510000 M⁻¹ s⁻¹; in test [2], 570000 M⁻¹ s⁻¹; in test [3] it was 330000 M⁻¹ s⁻¹; in test [4] it was 690000 M⁻¹ s⁻¹; in test [5], 970000 M⁻¹ s⁻¹. The kon2 (biphasic model) in test [1] worked out at 330000 M⁻¹ s⁻¹; in test [2], 440000 M⁻¹ s⁻¹; in test [3] it was 290000 M⁻¹ s⁻¹; in test [4], 310000 M⁻¹ s⁻¹; in test [5], 270000 M⁻¹ s⁻¹.
